Assay [1] addresses beta2-adrenergic receptor-luciferase fusion protein (human). Nature of the assay: bridge assay (Example 4A), sc-569 at 1 ng/ml in buffer.
Assay [2] shares this target. Nature of the assay: bridge assay (Example 4A), sc-569 at 2 ng/ml in buffer.
The target is the same in assay [3]. Nature of the assay: bridge assay (Example 4A), sc-569 at 5 ng/ml in buffer.
Assay [4] has the same target. The assay can be described thus: bridge assay (Example 4A), sc-569 at 10 ng/ml in buffer.
Assay [5] has the same target. The assay can be described thus: bridge assay (Example 4A), sc-569 at 20 ng/ml in buffer.
Assay [6] has the same target. The assay can be described thus: bridge assay (Example 4A), sc-569 at 50 ng/ml in buffer.
For assay [7] the target is unchanged. Nature of the assay: bridge assay (Example 4A), sc-569 at 100 ng/ml in buffer.
For assay [8] the target is unchanged. The assay can be described thus: bridge assay (Example 4A), sc-569 at 200 ng/ml in buffer.
Assay [9] has the same target. The assay can be described thus: bridge assay (Example 4A), sc-569 at 500 ng/ml in buffer.
The target is the same in assay [10]. The assay can be described thus: bridge assay (Example 4A), sc-569 at 1000 ng/ml in buffer.
Assay [11] shares this target. The assay can be described thus: bridge assay (Example 4A), sc-569 at 2000 ng/ml in buffer.
For assay [12] the target is unchanged. Nature of the assay: bridge assay (Example 4A), sc-569 at 5000 ng/ml in buffer.
Assay [13] has the same target. The assay can be described thus: bridge assay (Example 4A), sc-569 at 10000 ng/ml in buffer.
Assay [14] has the same target. Nature of the assay: bridge assay (Example 4A), sc-569 at 20000 ng/ml in buffer.

As for “Antibodies against B2 (sc-569 Santa Cruz, Calif., USA) (antibody)”, the RLU was found to be 24400 RLU in assay [1]; 25800 RLU in assay [2]; 28100 RLU in [3]; 33400 RLU in assay [4]; 45100 RLU in assay [5]; 76000 RLU in assay [6]. Besides, the RLU came out at 93900 RLU in assay [7]; 187000 RLU in assay [8]; 392000 RLU in assay [9]; 558000 RLU in [10]; 948000 RLU in [11]; 1.71e+06 RLU in [12]. Further, the values for the RLU in assay [13] and in assay [14] were 2.39e+06 RLU and 2.87e+06 RLU, respectively.
